Test results: the RNAGym collection of RNA variant scans (doi:10.7554/elife.80360)

B1: Twister Ribozyme (parent)
chain: AACACUGCCAAUGCCGGUCCCAAGCCCGGAUAAAAGUGGAGGGGGCGG

Variants of: B1
Assay: self-cleavage, relative activity (ratio to wild type); higher = more cleavage; co-transcriptional

Variant | self-cleavage
AACACAGCCAAUGCCGGGCCCAAGCCCGGAUAAAAGUGGAGGGGGCGG [U6A U18G] | 0.0743
AACACCGCCAAUGCAGGUCCCAAGCCCGGAUAAAAGUGGAGGGGGCGG [U6C C15A] | 0.169
AACACCGCCAAUGCUGGUCCCAAGCCCGGAUAAAAGUGGAGGGGGCGG [U6C C15U] | 0.354
AACACAGCCAAUGCCGGUCCCAAGCCCGGAUAAAAGUGGAGGGGUCGG [U6A G45U] | 0.695
AACAUUGCCAAUGCCGGUCCCAAGCCCGGAUAAAAGCGGAGGGGGCGG [C5U U37C] | 0.283
AACAUUGCCAAUGCCGGUCCCAAGCCCGGAUAAAAGGGGAGGGGGCGG [C5U U37G] | 0.432
AACAUUGCCAAUGCCGGUCCCAAGCCCGGAUAAAAGAGGAGGGGGCGG [C5U U37A] | 0.547
AACACAGCCUAUGCCGGUCCCAAGCCCGGAUAAAAGUGGAGGGGGCGG [U6A A10U] | 1
AACACAGCCGAUGCCGGUCCCAAGCCCGGAUAAAAGUGGAGGGGGCGG [U6A A10G] | 1.22
AACACAGCGAAUGCCGGUCCCAAGCCCGGAUAAAAGUGGAGGGGGCGG [U6A C9G] | 0.244
AACACAGCCAAUGCCGGUCCCAAGCCCGGAUAAAAUUGGAGGGGGCGG [U6A G36U] | 0.202
AACACAGCCAAUGCCGGUCCCAAGCCCGAAUAAAAGUGGAGGGGGCGG [U6A G29A] | 0.787
AACACAGCCAAUGCCGGUCCCAAGCCCGUAUAAAAGUGGAGGGGGCGG [U6A G29U] | 0.767
AACACCGCCAAUGCCGGUCCCAAGCCCGGUUAAAAGUGGAGGGGGCGG [U6C A30U] | 0.493
AACACAGCCAUUGCCGGUCCCAAGCCCGGAUAAAAGUGGAGGGGGCGG [U6A A11U] | 1.03
AACAUUGCCAAUGCCGGUCCCAAGCCCGGAUAAAAGUGGAGGGGACGG [C5U G45A] | 0.605
AACACAGACAAUGCCGGUCCCAAGCCCGGAUAAAAGUGGAGGGGGCGG [U6A C8A] | 0.104
AACACAGUCAAUGCCGGUCCCAAGCCCGGAUAAAAGUGGAGGGGGCGG [U6A C8U] | 0.175
AACACCGCCAAUGCCGGUCCCAAGGCCGGAUAAAAGUGGAGGGGGCGG [U6C C25G] | 0.0594
AACACCGCCAAUGCCGGUCCCAAGUCCGGAUAAAAGUGGAGGGGGCGG [U6C C25U] | 0.184
AACACAGCCAAUGCCGGUCCCAAGCCCGGAUAAAAGUGGAAGGGGCGG [U6A G41A] | 0.203
AACACAGCCAAUGCCGGUCCCAAGCCCGGAUAAAAGUGGAUGGGGCGG [U6A G41U] | 0.204
AACACAGCCAAUGCCGGUCCCAAGCCCGGAUAAAAGUGGACGGGGCGG [U6A G41C] | 0.182
AACACAGCCAAUGCCGGUCCCAAGCACGGAUAAAAGUGGAGGGGGCGG [U6A C26A] | 0.144
AACACAGCCAAUGCCGGUCCCAAGCGCGGAUAAAAGUGGAGGGGGCGG [U6A C26G] | 0.132
AACACCGCCAAUGCCGGUCCCAAGCCCGGAUAAACGUGGAGGGGGCGG [U6C A35C] | 0.403
AACAUGGCCAAUGCCGGUCCCAAGCCCGGAUAAAAGUGGAGGGGGCGG [C5U U6G] | 0.261

Variant | self-cleavage
AACAUAGCCAAUGCCGGUCCCAAGCCCGGAUAAAAGUGGAGGGGGCGG [C5U U6A] | 0.674
AACACCGCCAAUGCCGGUCCCAAGCGCGGAUAAAAGUGGAGGGGGCGG [U6C C26G] | 0.125
AACACCGCCAAUGCCGGUCCCAAGCACGGAUAAAAGUGGAGGGGGCGG [U6C C26A] | 0.0404
AACACAGCCAAUGCCGGUCCCAAGCCAGGAUAAAAGUGGAGGGGGCGG [U6A C27A] | 0.119
AACACAGCCAAUGCCGGUCCCAAGCCUGGAUAAAAGUGGAGGGGGCGG [U6A C27U] | 0.682
AACACAGCCAAUGCCGGUCCCAAGCCGGGAUAAAAGUGGAGGGGGCGG [U6A C27G] | 0.11
AACACCGCCCAUGCCGGUCCCAAGCCCGGAUAAAAGUGGAGGGGGCGG [U6C A10C] | 0.772
AACACCGCCUAUGCCGGUCCCAAGCCCGGAUAAAAGUGGAGGGGGCGG [U6C A10U] | 0.602
AACACAGCCAAUGCCGGUCCCAGGCCCGGAUAAAAGUGGAGGGGGCGG [U6A A23G] | 0.14
AACACAGCCAAUGCCGGUCCCAUGCCCGGAUAAAAGUGGAGGGGGCGG [U6A A23U] | 0.191
AACACAGCCAAUGCCGGUCCCACGCCCGGAUAAAAGUGGAGGGGGCGG [U6A A23C] | 0.097
AACACAGCCAAUGCCGGUCCCCAGCCCGGAUAAAAGUGGAGGGGGCGG [U6A A22C] | 0.936
AACACAGCCAAUGCCGGUCCCUAGCCCGGAUAAAAGUGGAGGGGGCGG [U6A A22U] | 0.816
AACACAGCCAAUACCGGUCCCAAGCCCGGAUAAAAGUGGAGGGGGCGG [U6A G13A] | 0.195
AACACAGCCAAUCCCGGUCCCAAGCCCGGAUAAAAGUGGAGGGGGCGG [U6A G13C] | 0.072
AACACAGCCAAUGCUGGUCCCAAGCCCGGAUAAAAGUGGAGGGGGCGG [U6A C15U] | 0.649
AACAUUGCCAAAGCCGGUCCCAAGCCCGGAUAAAAGUGGAGGGGGCGG [C5U U12A] | 0.943
AACACAGCCAAUGCCGGUCACAAGCCCGGAUAAAAGUGGAGGGGGCGG [U6A C20A] | 0.0593
AACACAGCCAAUGCCGGUCGCAAGCCCGGAUAAAAGUGGAGGGGGCGG [U6A C20G] | 0.0822
AACACCGCCAAUGGCGGUCCCAAGCCCGGAUAAAAGUGGAGGGGGCGG [U6C C14G] | 0.0559
AACACAGCCAAUGCCGGUCCCAAGCCCGGAUAAUAGUGGAGGGGGCGG [U6A A34U] | 1.04
AACACCGCCAAUGCCGGUCCCUAGCCCGGAUAAAAGUGGAGGGGGCGG [U6C A22U] | 0.141
AACACCGCCAAUGCCGGUUCCAAGCCCGGAUAAAAGUGGAGGGGGCGG [U6C C19U] | 0.131
AACACCGCCAAUGCCGGUGCCAAGCCCGGAUAAAAGUGGAGGGGGCGG [U6C C19G] | 0.0653
AACACCGUCAAUGCCGGUCCCAAGCCCGGAUAAAAGUGGAGGGGGCGG [U6C C8U] | 0.174
AACACAGCCAAUGCCGGUCCCAACCCCGGAUAAAAGUGGAGGGGGCGG [U6A G24C] | 0.399
AACACAGCCAAUGCCGGUCCCAAUCCCGGAUAAAAGUGGAGGGGGCGG [U6A G24U] | 0.0898
